Laboratory results as given in US20090286242A1, “MicroRNA Expression Profiling and Uses Thereof” (COLD SPRING HARBOR LABORATORY, priority 2007, published 2009).

Columns and labels:
[1] = test system: miR-205; test: Stem-loop qRT-PCR of mature miRNA in Wnt-1-expressing Comma-Dβ cells; format: cell-based, mouse; details: data not shown
Procedure: 1-4 μg of total RNA from sorted cells was used for small RNA cloning performed as described in Pfeffer et al, 2005 (incorporated by reference). Illumina 1G sequencing and analysis was performed as described Stark et al. 2007 (incorporated by reference). miRNA expression analyses mature miRNAs were quantified using the TaqMan MicroRNA Assays previously described by Chen et al., 2005 (Applied Biosystems, incorporated by reference).
Data was normalized to Actin using SuperScript III SYBR Green One-Step qRT-PCR system (Invitrogen). The experiments were repeated twice and all reactions were run in triplicate.

[2] = test system: Comma-Dβ cells; test: ALDEFLUOR / Sca-1 FACS analysis of Comma-Dβ cell compartments; format: cell-based, mouse; details: ectopic expression in Comma-Dβ cells

B1: Wnt-1: Wnt-1 ectopically expressed from an MSCV-hygro vector (Wnt-1MSCV) (protein, UniProt P04426 28-370, looked up)
Proto-oncogene Wnt-1: ANSSGRWWGIVNIASSTNLLTDSKSLQLVLEPSLQLLSRKQRRLIRQNPGILHSVSGGLQSAVRECKWQFRNRRWNCPTAPGPHLFGKIVNRGCRETAFIFAITSAGVTHSVARSCSEGSIESCTCDYRRRGPGGPDWHWGGCSDNIDFGRLFGREFVDSGEKGRDLRFLMNLHNNEAGRTTVFSEMRQECKCHGMSGSCTVRTCWMRLPTLRAVGDVLRDRFDGASRVLYGNRGSNRASRAELLRLEPEDPAHKPPSPHDLVYFEKSPNFCTYSGRLGTAGTAGRACNSSSPALDGCELLCCGRGHRTRTQRVTERCNCTFHWCCHVSCRNCTHTRVLHECL
Question: For B1, which “miR-205 level compared to empty vector control cells” value [1] is on record?
Answer: The value was 6 fold.

Question: What about the “increase in the ALDH bright Sca-1 high population” value [2] of the same molecule?
Answer: Its value is 3.5 fold.
